In the DeepSol protein solubility set:

Test: soluble on expression in E. coli; label from the status in PepcDB or PDB records
In the case of “SNAMIKRPIHMSHDFLAEVLDDESIVVDATMGNGNDTAFLAGLSKKVYAFDVQEQALGKTSQRLSDLGIENTELILDGHENLDHYVREPIRAAIFNLGYLPSADKSVITKPHTTLEAIEKILDRLEVGGRLAIMIYYGHDGGDMEKDAVLEYVIGLDQRVFTAMLYQPLNQINTPPFLVMLEKLQ”, the “soluble on expression in E. coli” value is reported as “soluble”.
For “SNAMILSQQKYNYLAKVSDSNGVISALAFDQRGALKCLMAQYQMKEPTVAQMEELKVLVSEELTPYASSILLDPEYGLPAAQARDREAGLLLAYEKTGYDANTTSRLPDCLVDWSIKRLKEAGADAVKFLLYYDVDGDPQVNVQKQAYIERIGSECQAEDIPFFLEILTYDETISNNSSVEFAKVKVHKVNDAMKVFSAERFGIDVLKVEVPVNMVYVEGFAEGEVVYSKEEAAQAFREQEASTDLPYIYLSAGVSAELFQETLVFAHKAGAKFNGVLCGRATWAGSVQVYMEEGKEAARQWLRTSGLQNINELNKVLKTTASPWTEKVSVG”, the “soluble on expression in E. coli” value was “soluble”.
With “SNAMKDKIIDNAITLFSEKGYDGTTLDDIAKSVNIKKASLYYHFDSKKSIYEQSVKCCFDYLNNIIMMNQNKSNYSIDALYQFLFEFIFDIEERYIRMYVQLSNTPEEFSGNIYGQIQDLNQSLSKEIAKFYDESKIKMTKEDFQNLILLFLESWYLKASFSQKFGAVEESKSQFKDEVYSLLNIFLKK” the “soluble on expression in E. coli” value was “soluble”.
With “SNAMLKREMNIADYDAELWQAMEQEKVRQEEHIELIASENYTSPRVMQAQGSQLTNKYAEGYPGKRYYGGCEYVDVVEQLAIDRAKELFGADYANVQPHSGSQANFAVYTALLQPGDTVLGMNLAQGGHLTHGSPVNFSGKLYNIVPYGIDESGKIDYDEMAKLAKEHKPKMIIGGFSAYSGVVDWAKMREIADSIGAYLFVDMAHVAGLIAAGVYPNPVPHAHVVTTTTHKTLAGPRGGLILAKGGDEELYKKLNSAVFPSAQGGPLMHVIAGKAVALKEAMEPEFKVYQQQVAKNAKAMVEVFLNRGYKVVSGGTENHLFLLDLVDKNLTGKEADAALGRANITVNKNSVPNDPKSPFVTSGIRIGSPAVTRRGFKEAEVKELAGWMCDVLDNINDEATIERVKAKVLDICARFPVYA” the “soluble on expression in E. coli” value was “soluble”.
With “SNAMNNTQKKLKVLFIGESWHIHMIHSKGYDSFTSSKYEEGATWLLECLRKGGVDIDYMPAHTVQIAFPESIDELNRYDVIVISDIGSNTFLLQNETFYQLKIKPNALESIKEYVKNGGGLLMIGGYLSFMGIEAKANYKNTVLAEVLPVIMLDGDDRVEKPEGICAEAVSPEHPVVNGFSDYPVFLGYNQAVARDDADVVLTINNDPLLVFGEYQQGKTACFMSDCSPHWGTQQFMSWPFYTDLWVNTLQFIARK” the “soluble on expression in E. coli” value was “soluble”.
With “SNAMPMTLDLQPGQRLARGVARHLRAHGFVSVEEFVPARGLRVDVMGLGPKGEIWVIECKSSRADFQADAKWQGYLEWCDRYFWAVDMEFPAELLPAESGLLIADAYDAEIVRMAPEQKLAPARRKVLIQKFATHAARRLQALRDPEGHGIFE” the “soluble on expression in E. coli” value was “soluble”.
With “SNAMRMIDIIEKKRDGHTLTTEEINFFIGGYVKGDIPDYQASSLAMAIYFQDMNDDERVALTMAMVNSGDMIDLSDIKGVKVDKHSTGGVGDTTTLVLAPLVAAVDVPVAKMSGRGLGHTGGTIDKLEAIDGFHVEIDEATFVKLVNENKVAVVGQSGNLTPADKKLYALRDVTGTVNSIPLIASSIMSKKIAAGADAIVLDVKTGSGAFMKTLEDAEALAHAMVRIGNNVGRNTMAIISDMNQPLGRAIGNALELQEAIDTLKGQGPKDLTELVLTLGSQMVVLANKAETLEEARALLIEAINSGAALEKFKTFIKNQGGDETVIDHPERLPQAQYQIEYKAKKSGYVTELVSNDIGVASMMLGAGRLTKEDDIDLAVGIVLNKKIGDKVEEGESLLTIHSNRQDVDDVVKKLDSSITIADHVVSPTLIHKIITE” the “soluble on expression in E. coli” value was “soluble”.
For “SNAYRGPEAFLKLPKDLKDREALQDIMQDIGNSDDILAAVVLSATPGAVEAFRKNGETIRITGDGLKAAHRFLSNDPKIGEKRIRPGALIRVKKTEKGSWQIVQLP”, the “soluble on expression in E. coli” value was “soluble”.
For “SNEGKELSTFCRKFEVPLRKALEKAGRLVDDPGRPRLLLTFISGRRVFVGVASASNSALWPMGIPRLKFPREAPSRSTLKLEEAWHQFIPREQWEQRLGDDMTGVDLGASPGGWTYQLVRRGMLVTAIDNGPMAESLMDTGLVQHLMADGFTWQPKQPVDWMVCDIVEKPARTTSLIETWLGEGLCREAVVNLKLPMKQRYAEVRRLLDRMEATFKARKIRVSIACKQLYHDREEVTCHLRRLDLK”, the “soluble on expression in E. coli” value was “not soluble”.
With “SNRVNDPLIFIRDIKPGLKNLNVVFIVLEIGRVTKTKDGHEVRSCKVADKTGSITISVWDEIGGLIQPGDIIRLTRGYASMWKGCLTLYTGRGGELQKIGEFCMVYSEVPNFSEPNPDYRGQQNKGAQSEQKNNSMNSNMGTGTFGPVGNGVHTGPESREHQFSHAGRSNGRGLINPQLQGTASNQTVMTTISNGRDPRRAFKR” the “soluble on expression in E. coli” value was “soluble”.
With “SPAKTPIYLKSNYSKKGKKCRLRDILSPDMISPPLGDFRHTIHIGKGGECDAFGDMSFLQGNFELLPGKGGRVRPQYGLHGEFTRANSASDASYVETPSPVLKNAISLPTIGGSQALTLPMISTTVFPMTHDNMSEPSTPPAGSEDLEILQMETLLQSISIFRSDPSPVPEEDEPMIDRMEMNEKSCMKKMHSSEKELETFLSVFVNGNGDANGNFNNGNNGDSVFQYEQDMFSIKGDWADRDSGVEEGRLCDSDFEISKSKSQSQESLPQITGSLFSLELDLGPSILDDVLNIMNKPVS” the “soluble on expression in E. coli” value was “soluble”.
In the case of “SPASGPGPRRVQRRAWPPDKEQEKEKKSVICVEGNIASGKTTCLEFFSNATDVEVLTEPVSKWRNVRGHNPLGLMYHDASRWGLTLQTYVQLTMLDRHTRPQVSSVRLMERSIHSARYIFVENLYRSGKMPEVDYVVLSEWFDWILRNMDVSVDLIVYLRTNPETCYQRLKKRCREEEKVIPLEYLEAIHHLHEEWLIKGSLFPMAAPVLVIEADHHHMERMLELFEQNRDRILTPENRKHCP”, the “soluble on expression in E. coli” value is reported as “soluble”.
In the case of “SPSKVQELSVYEINELDRHSPKILKNAFSLMFGLGDLVPFTNKLYTGDLKKRVGITAGLCVVIEHVPEKKGERFEATYSFYFGDYGHLSVQGPYLTYEDSFLAITGGAGIFEGAYGQVKLQQLVYPTKLFYTFYLKGLANDLPLELTGTPVPPSKDIEPAPEAKALEPSGVISNYTN”, the “soluble on expression in E. coli” value is reported as “not soluble”.
In the case of “SQEKVSIEQQLAVESIRKFLNSKTSYDVLPVSYRLIVLDTSLLVKKSLNVLLQNSIVSAPLWDSKTSRFAGLLTTTDFINVIQYYFSNPDKFELVDKLQLDGLKDIERALGVDQLDTASIHPSRPLFEACLKMLESRSGRIPLIDQDEETHREIVVSVLTQYRILKFVALNCRETHFLKIPIGDLNIITQDNMKSCQMTTPVIDVIQMLTQGRVSSVPIIDENGYLINVYEAYDVLGLIKGGIYNDLSLSVGEALMRRSDDFEGVYTCTKNDKLSTIMDNIRKARVHRFFVVDDVGRLVGVLTLSDILKYILLGS”, the “soluble on expression in E. coli” value is reported as “soluble”.
In the case of “SQLADAEKINVPFPSSQTVVRLGQIGIDHHNQNYFPLMVGNYILGGGTLVSRLGTEVREKRGLTYGIDSQFVPMLGEGPFIISLSTKNSEARNALHITQDTLIKFIKNGPNQEELASAKQYLTGSFPLSLGSNTNIANLLLRMAFYHLPDNYLDTYVAKINAVTDAEIKQAFQQQVNPEKLLLVTVGQ”, the “soluble on expression in E. coli” value is reported as “not soluble”.
With “SQLVECVPNFSEGKNQEVIDAISRAVAQTPGCVLLDVDSGPSTNRTVYTFVGRPEDVVEGALNAARAAYQLIDMSRHHGEHPRMGALDVCPFIPVRGVTMDECVRCAQAFGQRLAEELGVPVYLYGEAARTAGRQSLPALRAGEYEALPEKLKQAEWAPDFGPSAFVPSWGATVAGARKFLLAFNINLLSTREQAHRIALDLREQGRGKDQPGRLKKVQAIGWYLDEKNLAQVSTNLLDFEVTGLHTVFEETCREAQELSLPVVGSQLVGLVPLKALLDAAAFYCEKENLFLLQDEHRIRLVVNRLGLDSLAPFKPKERIIEYLV” the “soluble on expression in E. coli” value was “soluble”.
With “SRKRLSAPELRLSLTKGPGNDGASPTQSAPSSPDGSSDLEIDELETPSDSEQLDSGHEFEWEDELPRAEGLGTSETAERLGRGCMWDVTGEDGHHWRVFRMGPREQRVDMTVIEPYKKVLSHGGYHGDGLNAVILFASCYLPRSSIPNYTYVMEHLFRYMVGTLELLVAENYLLVHLSGGTSRAQVPPLSWIRQCYRTLDRRLRKNLRALVVVHATWYVKAFLALLRPFISSKFTRKIRFLDSLGELAQLISLDQVHIPEAVRQLDRDLHGSGGT” the “soluble on expression in E. coli” value was “soluble”.
With “SRLSIDLYPKIETSNIMVVTSYAGASASDIENNVTKVLENTLNGVSNLKHITSKSRENASVITLQFNEGVDIEVATNDVRDKLDAVSNFLPDDVNKPMIFKFGTDDIPITMLSVQAKESTMALSKILEDKVTNALARLDGVGAVSIMGTVKREIQVYCDPAKLEAYNLTVEAVSQIISAENKNVPAGLIDLGNKTSSIRIQGEFADARQLNQIVVASVGGRNVYLSDVARVEDTHAENEQESYNNNVRGAMIMINKQSGANSVAISRAVRGALPEIQASLPSDVELGTIFDTSDNIVNTINSLRD” the “soluble on expression in E. coli” value was “not soluble”.
For “SRVLMEQPGYAQMRKLILFQQYQFEPLFVRQKVGFDIDSVTQSTADALYITPSNQYPMGTTLNTEQRAQIIEWASNQEAWILEDDYDSEFQFAHRPYTSLQGLAAQMGRDERVLYIGSFSKVMFNGLRLGYLVVPESLVDKCLMVKDALSGDTPSHIQAAMADFISEGSLLRHIRKMRRVYKSKHEQVCFSIQHYFGDKVRVISQAAGLHVTLSWQQGIDENTWTQRAKKAGIVMRPVSFYEHPDFKARDWQGVVIGYGNVRLDNIDPLIKRLFELFDV”, the “soluble on expression in E. coli” value was “not soluble”.
With “SSAKSAISKEIFAPLDERMLGAVQVKRRTKKKIPFLATGGQGEYLTYICLSVTNKKPTQASITKVKQFEGSTSFVRRSQWMLEQLRQVNGIDPNGDSAEFDLLFENAFDQWVASTASEKCTFFQILHHTCQRYLTDRKPEFINCQSKIMGGNSILHSAADSVTSAVQKASQALNERGERLGRAEEKTEDLKNSAQQFAETAHKLAMKHKC” the “soluble on expression in E. coli” value was “soluble”.
In the case of “SSDKDDIETPLLTEAAPILEDGNCEPAKNSESVDQGAKPESKSEPVVSTRKRPETKPSSDLETSKVLPIQDNVSKDVPQTRWGYWGSWGKSILSSASATVATVGQGISNVIEKAETSLGIPSPSEISTEVKYVAGETNAKENENSSPVAGAFGVFSTISTAVQSTGKSVISGGLDALEFIGKKTMDVIAEGDPGFKRTKGLMNRNATLSQVLREAKEKEEIRTSNEVTVETDKKTHYGLLFDEFQGLSHLEALEMLSQESEIKVKSILNSLSGEELETLKVELEQLKETFSLAEFCEEEEEEKKGDEDFTKDITELFSQLHVSSKPEKLARARNTAHEWIRKSLTKPLAENEEGEKQSEAENTEQVNKNSIEDIHAFAIRSLAELTACSIELFHKTAALVLHGRKQEVTAIERSQTLSQMTIVLCKELSSLSKEFTTCLTTAGVKEMADVLNPLITAVFLEASNSASYIQDAFQLLLPVLEISLIENKIESHRHELQGQKPLLEH”, the “soluble on expression in E. coli” value is reported as “soluble”.
With “SSENQKEVSPPQAISVKSEASSSIFSKPISTSSPAGLAAAQRVTPGKLSTLLLEMGPLAIRHITQTLCLDIPCFKDLSSSKQRRLIMSAMESGDKEKSVVFEKIGWGQWSAKRVDPANFDKELEATNFANAKVKDLISQESQRRKSNNSNSNSGGKVEMPMKVEHNITNIDGATTPPTAVASTTIPVNIKRSKSPLAAANVVYIDENALASEDEDEEFDEDDHHLHYQNKSRNSSNNFGKSSNGDPYSFGRRRSQVVFADSTPENIEHEIIAQKIRPLLRNRRRSSIKPHTPFISKLNTHQDSSYLSPNTTSTTTPSNNNSNSNQAKIDLEKLTATSEPTSRRASRLSVSKESSIRSTLFPNKNYLIVTTNPNSKATSVSTSPKLEEQMNVSSNPIVLSDKEKHRVASQHLNGESSPQLVPHSHHQPHSDTDEEDWESIGAASLRNNSLAPNIDSVASSTNGVVSPKPTNPSFTNSQNGDIEPPLQHDQQKHEQQPRNGEDNSAAFLLMSLKS” the “soluble on expression in E. coli” value was “soluble”.
